{"source": "paper PMC2958309", "about": "(Journal of Molecular and Cellular Cardiology, 2010)", "binders": {"B1": {"name": "NCX1 Calcium Binding Domain 2 (CBD2) (domain or fragment, Mus musculus, UniProt P70414 527-712, looked up)", "chain": "TIFDDDHAGIFTFEEPVTHVSESIGIMEVKVLRTSGARGNVIIPYKTIEGTARGGGEDFEDTCGEPEFQNDEIVKTISVKVIDDEEYEKNKTFFIEIGEPRLVEMSEKKALLLNELGGFTLTGKEMYGQPIFRKVHARDHPIPSTVITISEEYDDKQPLTSKEEEERRIAEMGRPILGEHTKLEVI"}, "B2": {"name": "NCX1 Calcium Binding Domain 1 (CBD1) (domain or fragment, Mus musculus, UniProt P70414 397-539, looked up)", "chain": "MAENDPVSKIFFEQGTYQCLENCGTVALTIMRRGGDLSTTVFVDFRTEDGTANAASDYEFTEGTVIFKPGETQKEIRVGIIDDDIFEEDENFLVHLSNVRVSSDVSEDGILESNHASSIACLGSPSTATITIFDDDHAGIFTF"}}, "experiment_in_all_cases": "SPR", "key": {"[1]": {"biological_target": "T1, wild type sorcin (soluble resistance-related calcium binding protein) ( (human or Chinese hamster …, UniProt P05044 1-198))", "T1 sequence (looked up)": "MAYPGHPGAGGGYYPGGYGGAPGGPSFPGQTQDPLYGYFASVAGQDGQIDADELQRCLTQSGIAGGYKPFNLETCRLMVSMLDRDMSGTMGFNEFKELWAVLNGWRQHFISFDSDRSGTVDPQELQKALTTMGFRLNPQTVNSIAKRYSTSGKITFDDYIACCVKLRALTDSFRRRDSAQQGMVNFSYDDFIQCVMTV"}, "[2]": {"biological_target": "T1, wild type sorcin (soluble …)", "remark": "listed apart in the source"}, "[3]": {"biological_target": "T1, wild type sorcin (soluble …)", "remark": "listed apart in the source"}, "[4]": {"biological_target": "T2, sorcin W105G variant ( (human or Chinese hamster …, UniProt P05044 1-198, W105G))", "T2 sequence (looked up)": "T1 sequence (looked up) with W105G"}}, "note": "Changes are numbered by the printed parent chain. Read-outs that look alike come from different tables or passages of the source.", "data": [{"binder": "B1", "values": [{"measurement": "koff", "setting": "[1]", "value": "0.6 ± 0.2", "unit": "s⁻¹"}, {"measurement": "Kd", "setting": "[2]", "value": 1000, "unit": "nM"}, {"measurement": "koff", "setting": "[2]", "value": "0.05 ± 0.03", "unit": "s⁻¹"}, {"measurement": "kon", "setting": "[2]", "value": 50000, "unit": "M⁻¹ s⁻¹"}, {"measurement": "Kd", "setting": "[3]", "value": 3000, "unit": "nM"}, {"measurement": "koff", "setting": "[3]", "value": "0.24 ± 0.1", "unit": "s⁻¹"}, {"measurement": "kon", "setting": "[3]", "value": 80000, "unit": "M⁻¹ s⁻¹"}]}, {"binder": "B2", "values": [{"measurement": "koff", "setting": "[1]", "value": "0.9 ± 0.4", "unit": "s⁻¹"}, {"measurement": "binding result", "setting": "[4]", "value": "binds"}, {"measurement": "Kd", "setting": "[2]", "value": 1200, "unit": "nM"}, {"measurement": "koff", "setting": "[2]", "value": "0.08 ± 0.1", "unit": "s⁻¹"}, {"measurement": "kon", "setting": "[2]", "value": 70000, "unit": "M⁻¹ s⁻¹"}, {"measurement": "Kd", "setting": "[3]", "value": 7000, "unit": "nM"}, {"measurement": "koff", "setting": "[3]", "value": "0.27 ± 0.1", "unit": "s⁻¹"}, {"measurement": "kon", "setting": "[3]", "value": 40000, "unit": "M⁻¹ s⁻¹"}]}]}
